Source: patent US20250277057A1 (OKLAHOMA MEDICAL RESEARCH FOUNDATION, published 2025)

B1: HAPC-14-6 (antibody, V domains shown)
VH: EVQLVESGGGLVQPGGSLRLSCAASGFTFSFYYLNWVRQAPGKGLEWVGDIRLKKNNYEKHYAESVKGRFTISRDDSKSITYLQMNSLRAEDTAVYYCAREGDYFDYWGQGTTVTVSS
VL: DIQLTQSPSSLSASVGDRVTITCRASESVDSFGATFMHWYQQKPGKAPKLLIYLASRLGSGVPSRFSGSGSGTDFTLTISSLQPEDFATYYCQQNNEDPYTFGQGTKLEIK
notes: Whole IgG, backbone hIgG1; also called HPAC 14-6; No. 6
B2: Humanized antibody 13 (HAPC-13) (antibody, V domains shown)
VH: EVQLVESGGGLVQPGGSLRLSCAASGFTFSNYYLNWVRQAPGKGLEWVGDIRLKSNNYEKHYAESVKGRFTISRDDSKSITYLQMNSLRAEDTAVYYCAREGDYFDYWGQGTTVTVSS
VL: DIQMTQSPSSLSASVGDRVTITCRASESVDSFGATFMHWYQQKPGKAPKLLIYLASNLESGVPSRFSGSGSGTDFTLTISSLQPEDFATYYCQQNNEDPYTFGQGTKLEIK
notes: also called Humab001-13; NO; 13 antibody
B3: HAPC-14-3 (antibody, V domains shown)
VH: EVQLVESGGGLVQPGGSLRLSCAASGFTFSFYYLNWVRQAPGKGLEWVGDIRLKKNNYEKHYAESVKGRFTISRDDSKSITYLQMNSLRAEDTAVYYCAREGDYFDYWGQGTTVTVSS
VL: DIQLTQSPSSLSASVGDRVTITCRASESVDSFGATFMHWYQQKPGKAPKLLIYLASRLGSGVPSRFSGSGSGTDFTLTISSLQPEDFATYYCVQNNEDPYTFGQGTKLEIK
notes: Whole IgG, backbone hIgG1; also called HPAC 14-3; No. 3

How the values were obtained:
human protein C [1] = biological target: T1, human protein C (human, UniProt P04070 43-461); assay: ELISA, plate coated with hPC 1 ug/mL, anti-hIgG-Fc-HRP
T1 construct: Zymogen form, coated on ELISA plates; also called hPC; PC
Experimental: (§1) The binding abilities of the anti-aPC monoclonal antibodies to haPC/hPC were assayed by Elisa. […] 1. ELISA plates were coated with haPC/hPC (1 ug/mL in PBS), 100 μL/well, at 4° C. overnight. […] 2. The plates were washed 3 times with PBST (0.1% Tween 20), 200 μL/well. […] 3. The plates were blocked with 2% BSA (PBS solution), 200 μL/well, at room temperature for 1 hour. […] 4. The plates were washed 3 times with PBST (0.1% Tween 20), 200 μL/well. […] 5. The plates were incubated with anti-aPC monoclonal antibody as primary antibody (diluted from 10 μg/mL in 2% BSA), 100 μL/well, at room temperature for 1 hour. […] 6. The plates were washed 3 times with PBST (0.1% Tween 20), 200 μL/well. [0200] 7. The plates were incubated with anti-hIgG-Fc antibody-HRP (diluted 5000-fold in 2% BSA buffer) at room temperature for 1 hour. [0201] 8. The plates were washed 6 times with PBST (0.1% Tween 20), 200 μL/well. [0202] 9. The plates were incubated with a TMB substrate (prepared from solutions A and B at 1:1 (v/v)), 100 μL/well, away from light for 10 minutes. […] 10. The reaction was quenched with HCl (1 M), 100 μL/well, and OD450 was read.

[2] = biological target: T2, human activated protein C (human, UniProt P04070 43-197; P04070 212-461); assay: Octet BLI
T2 construct: In the plasma assays aPC is generated in human plasma with Protac; also called aPC; haPC
Experimental: (§2) Assay method: Octet analysis was carried out at 25° C. using a Protein A Octet biosensor in 1× Kinetics buffer. During the kinetics assay, the baseline step assay was run in 1× Kinetics buffer for 120 seconds, and then run for 240 seconds after the antibody was loaded to the biosensor. Next, the baseline 2 step assay was run in 1× Kinetics buffer for 120 seconds. […] The 1× Kinetics buffer was used as a blank control to show the natural dissociation of the antibody in the buffer. 10 mM glycine at pH 1.5 was used for the regeneration step. Octet data analysis software was used to calculate binding kinetics, and a 1:1 binding model was used for curve fitting.

human protein C [3] = biological target: T1, human protein C; assay: ELISA on plate-coated HPC, OD450
Experimental: as §1

[4] = biological target: T2, human activated protein C; assay: ELISA, plate coated with haPC 1 ug/mL, anti-hIgG-Fc-HRP
Experimental: as §1

[5] = biological target: T2, human activated protein C; assay: Octet BLI, antibody on Protein A sensor, huAPC 3.13-50 nM, 1:1 model, 25 C, pH 7.4
Experimental: as §2
The affinities of the mutant antibodies were assayed at pH 7.4.

[6] = biological target: T2, human activated protein C; assay: cell-based or functional assay
[7] = biological target: T2, human activated protein C; assay: ELISA on plate-coated APC (1 ug/ml), OD 450; EC50 from the table drawn beside the curves; no unit in the table, axis Ab Conc.(nM)
human protein C [8] = biological target: T1, human protein C; assay: ELISA on plate-coated HuPC (1 ug/ml), OD450

Row | Binder | Span (human protein C [1]) | fold increase of affinity against the unmutated No. 14 antibody HAPC-14 [2] | binding result (human protein C [3]) | EC50 [4] | Span [4] | Kd [5] | koff [5] | kon [5] | Mean clotting time (s), FIX-deficient plasma, APC-antibody concentration 0.5 ug/ml [6] | Mean clotting time (s), FIX-deficient plasma, APC-antibody concentration 1 ug/ml [6] | Mean clotting time (s), FIX-deficient plasma, APC-antibody concentration 5 ug/ml [6] | Mean clotting time (s), FVIII-deficient plasma, APC-antibody concentration 0.5 ug/ml [6] | Mean clotting time (s), FVIII-deficient plasma, APC-antibody concentration 1 ug/ml [6] | Mean clotting time (s), FVIII-deficient plasma, APC-antibody concentration 5 ug/ml [6] | EC50 [7] | binding result (human protein C [8])
1 | B1 | ~0.0133 | ~100 fold | no binding (tested: 10^2 nM) | 0.0821 nM | 1.85 | 3.64 nM | 0.00108 s⁻¹ | 297000 M⁻¹ s⁻¹ | 181 s | 198 s | 180 s | 182 s | 187 s | 162 s |  | 
2 | B2 |  |  |  |  |  |  |  |  | 502 s | 402 s | 326 s | 629 s | 546 s | 301 s | 0.199 nM | no binding (tested: 100 nM)
3 | B3 | ~0.267 | ~100 fold | no binding (tested: 10^2 nM) | 0.0618 nM | 1.61 | 2.67 nM | 0.000854 s⁻¹ | 320000 M⁻¹ s⁻¹ | 208 s | 200 s | 185 s | 205 s | 188 s | 176 s |  | 
